To fix the notation:
B1: p21 PIP box peptide used for ITC (peptide)
chain: RKRRQTSMTDFYHSK
modifications: Exact limits are in the supplement. Window is the 15-mer homologous to ZRANB3 515-529, aligned on Q144. Check residues are not named in the paper. Termini chemistry not stated.
B2: Polι PIP box peptide used for ITC (peptide)
chain: NTAKKGLIDYYLMPS
modifications: Exact limits are in the supplement. Window is the 15-mer homologous to ZRANB3 515-529 (equal lengths stated); the PIP box KGLIDYYL is 421-428 in 715-aa numbering, +25 in the 740-aa entry. Check residues are not named in the paper. Termini chemistry not stated.
B3: FEN1 PIP box peptide used for ITC (peptide)
chain: QGSTQGRLDDFFKVT
modifications: Exact limits are in the supplement. Window is the 15-mer homologous to ZRANB3 515-529, aligned on Q337. Termini chemistry not stated.

The results in this text go back to paper PMC5481773 (2017).

His-tagged Proliferating Cell Nuclear Antigen (PCNA), sequence (P12004 whole entry): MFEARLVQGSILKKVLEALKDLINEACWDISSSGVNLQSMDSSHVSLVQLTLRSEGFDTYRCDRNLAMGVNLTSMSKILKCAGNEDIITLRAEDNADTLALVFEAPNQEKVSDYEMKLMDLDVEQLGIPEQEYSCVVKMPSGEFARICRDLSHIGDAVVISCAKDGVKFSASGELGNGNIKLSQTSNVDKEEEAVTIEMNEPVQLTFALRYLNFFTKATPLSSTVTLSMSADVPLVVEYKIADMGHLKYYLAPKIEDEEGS

This experiment addresses His-tagged Proliferating Cell Nuclear Antigen (PCNA) (human, UniProt P12004 1-261). In words: ITC.
As to B1, the Kd stood at 0.275 µM.
With B2, binding was put at a Kd of 5.45 µM.
For the molecule B3, the Kd was 17.3 µM.

A word on the Kd: it is the equilibrium constant for the complex coming apart. A low value points to tighter binding.
